Bridges are numbered along the chain shown (N, C = ends). Where no end group is shown, it is not given here. Side-chain parts run from the residue outwards. [ ]: non-standard residue; d: D form. 1Nal = N[C@@H](Cc1cccc2ccccc12)C(=O)O
T1: erythropoietin receptor (EPOR) on human TF-1 cells (human, UniProt P19235 25-508)
T1 sequence (looked up): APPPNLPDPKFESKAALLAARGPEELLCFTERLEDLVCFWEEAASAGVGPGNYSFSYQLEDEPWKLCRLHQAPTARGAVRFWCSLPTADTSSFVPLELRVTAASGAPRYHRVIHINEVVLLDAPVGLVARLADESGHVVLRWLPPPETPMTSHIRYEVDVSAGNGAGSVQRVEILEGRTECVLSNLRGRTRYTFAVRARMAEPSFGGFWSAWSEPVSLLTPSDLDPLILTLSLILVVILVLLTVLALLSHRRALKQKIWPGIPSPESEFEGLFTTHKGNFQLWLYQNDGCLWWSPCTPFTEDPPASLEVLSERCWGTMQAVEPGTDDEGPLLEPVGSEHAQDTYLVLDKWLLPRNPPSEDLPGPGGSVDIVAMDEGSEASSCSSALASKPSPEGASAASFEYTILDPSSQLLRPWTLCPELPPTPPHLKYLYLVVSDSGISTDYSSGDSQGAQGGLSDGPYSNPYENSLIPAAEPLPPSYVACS

B1: peptide GGTYSCHFAKLTWVCKKQGG (peptide)
peptide: GGTYSCHFAKLTWVCKKQGG
modifications: disulfide 6-15 (inferred)
B2: SEQ ID NO 6 peptide GGTYSCHFGRLTWVCKKQGG (peptide)
peptide: GGTYSCHFGRLTWVCKKQGG
modifications: disulfide 6-15 (inferred)
B3: SEQ ID NO 4 peptide GGTYSCHFGKLTWVCKPQGG (peptide)
peptide: GGTYSCHFGKLTWVCKPQGG
modifications: disulfide 6-15 (inferred)
B4: SEQ ID NO 2 peptide GGTYSCHFGKLTWVCKKQGG (BB49, monomer) (peptide)
peptide: Ac-GGTYSCHFGKLTWVCKKQGG
modifications: disulfide 6-15 (inferred)
B5: peptide GGTYSCHFGPLTWVCKKQGG (peptide)
peptide: GGTYSCHFGPLTWVCKKQGG
modifications: disulfide 6-15 (inferred)
B6: SEQ ID NO 5 peptide GGTYSCHFGRLTWVCKPQGG (peptide)
peptide: GGTYSCHFGRLTWVCKPQGG
modifications: disulfide 6-15 (inferred)

Assays:
TF-1 Cells [1] = assay: TF-1 proliferation assay (MTS, viable cell number), EPO-like activity; format: cell-based, human; settings: normalized plots
Experimental: An experiment was performed in a standard TF-1 cell assay as recommended by the European Pharmacopoe for the determination of EPO-like activity in vitro (please also see below). Basically, TF-1 cells (their proliferation being dependent from the presence of EPO-like activity) are cultured in the presence various concentrations of EPO or EPO-mimetic substances. The resulting cell numbers are quantified using colorimetric MTT-assay and photometric measurements.
In a TF-1 proliferation assay, TF-1 cells are seeded and cultured for several days in varying concentrations of EPO or EPO mimetic peptides in a multi-well plate.
For optimal results TF-1 cells should be cultured for two days in the absence of any cytokine (starved) before starting the assay. Three days after starting the assay, cell proliferation is measured indirectly by assaying the number of viable cells.
A tetrazolium reagent, called MTS, is added which is reduced to coloured formazan. This reaction depends on NADH and NADPH, in other words depends on mitochondrial activity. The amount of formazan is measured spectrophotometrically. Using a range of known cell numbers for calibration, it is possible to determine the absolute number of viable cells present under each condition. The principal design is also illustrated in FIG. 24.
The activity of a certain agent in this assay is determined by: • 1. assessing whether this agent causes an increase in the number of viable cells at a certain concentration, and • 2. at which concentration this agent exerts a half-maximum effect (determination of the EC50).

TF-1 Cells [2] = assay: Proliferation assay with TF-1 cells by MTT (printed MU), peptide monomers; format: cell-based, human; settings: TF-1 proliferation, MTT-assay data, GraphPad dose-response
Experimental: Proliferation Assay with TF-1 Cells by MU
TF-1 Cells in logarithmic growth phase (˜2.10^5-1.10^6 cells/ml; RPMI medium; 20% fetal calf serum; supplemented with Penicillin, streptomycin, L-Glutamine; 0.5 ng/ml Interleukin 3) are washed (centrifuge 5 min. 1500 rpm and resuspended in RPMI complete without IL3 at 500.000 cells/ml) and precultured before start of the assay for 24 h without IL-3. At the next day the cells are seeded in 24- or 96-well plates usually using at least 6 concentrations and 4 wells per concentration containing at least 10.000 cells/well per agent to be tested. Each experiment includes controls comprising recombinant EPO as a positive control agent and wells without addition of cytokine as negative control agent. […]
At day 4, prior to start of the analysis, a dilution series of a known number of TF-1 cells is prepared in a number of wells (0/2500/5000/10000/20000/50000 cells/well in 100 μl medium). These wells are treated in the same way as the test wells and later provide a calibration curve from which cell numbers can be determined. […] 25 μl of 10% sodium dodecyl sulfate in water are added to each well prior to measurement E492 in an ELISA Reader.
Using graphical evaluations as shown in FIGS. 17 and 18 based on calculations of the dose-response relationship using the program GraphPad the following EC50 values were determined on the basis of MU-assay data: […]

[3] = target: T1, erythropoietin receptor (EPOR) on human …; assay: cell-based or functional assay

Row | Molecule | efficacy and potency compared with other EPO mimetic peptides (TF-1 Cells [1]) | EC50, TF-1 cell proliferation (MTT assay) [3] [µM] | further results
1 | GGTYSCHFGKLTWVCKKQGG [SEQ ID NO 2, EPO mimetic peptide monomer] | in the same range as EMP1 |  | 
2 | Ac-GGTYSCHFGKLT-Na1-VCKKQRG-Am (Ac-GGTYSCHFGKLT[1Nal]VCKKQRG-NH2; cysteine pairing not given here) [BB68] | even more effective than EMP1 and 8849 |  | efficacy and potency compared with other EPO mimetic peptides (TF-1 Cells [1]; listed as B868): improved effect
3 | GGTYSCHFGGLTWVCKPQGG |  |  | EC50 values of exemplary peptide monomers (TF-1 Cells [2]): no activity
4 | AGEM40_HES: peptide (AGEM40) HESylated according to the supravalence principle (Ac-C([maleimide-HES 130 kD])GGTYSCHFGKLT[1Nal]VCKKQRGGGTYSCHFGKLT[1Nal]VCKKQRG-NH2; disulfide 7-16, 27-36 (inferred)) | highly effective and potent |  | 
5 | B1 |  | 5.04 | 
6 | B2 |  | 4.97 | 
7 | B3 |  | 4.66 | 
8 | B4 |  | 3.28 | 
9 | B5 |  | 2.52 | 
10 | B6 |  | 5.16 | 
